Measurements as given in the supplement of paper PMC10724198.
± gives the standard deviation of the averaged measurements.

test system: Saccharomyces cerevisiae; test: protein stability index of tFT-peptide fusion (C-terminal peptide) (PSI (0-1 scale)); higher = more stable (slower turnover); details: genetic background: wild type; temperature: 30 C
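Further: PSI is a weighted mean of sequencing reads over stability bins, variants kept only with over 10 reads, mCherry proximal and sfGFP distal, peptide attached via GGGS linker.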

Which protein stability index does the source give for TSPPPGTHTLQP here?
Its protein stability index is 0.626 ± 0.023.

VFSARVVGGVLF was tested. Which protein stability index did it give?
Its protein stability index is 0.681 ± 0.011.

With RRWIFGEGMSTY as the sequence, how does the protein stability index read?
The protein stability index was 0.723 ± 0.058.

Which protein stability index does the source give for PSFHASSLSWFS here?
The protein stability index was 0.745 ± 0.039.

For RLVSIHDTRESL, which protein stability index is on record?
Its protein stability index is 0.727 ± 0.012.

PTLSPPSPPPPA was tested. Which protein stability index did it give?
The protein stability index was 0.665 ± 0.035.

For EINIMKIIYRKI, which protein stability index is on record?
The protein stability index was 0.666 ± 0.044.

Which protein stability index does the source give for NTGEHVVPCKGT here?
Its protein stability index is 0.659 ± 0.0067.

VFLTASVLVAPF was tested. Which protein stability index did it give?
Its protein stability index is 0.575 ± 0.015.

With SFSLVATESPVT as the sequence, how does the protein stability index read?
The protein stability index was 0.709 ± 0.052.

With ALVAGGRGRRLW as the sequence, how does the protein stability index read?
Its protein stability index is 0.692 ± 0.087.

For AKSCNSVHALRT, which protein stability index is on record?
The protein stability index was 0.668 ± 0.11.

With WFCDNHRSFGWG as the sequence, how does the protein stability index read?
Its protein stability index is 0.747 ± 0.07.

How did the protein stability index turn out when IKKKTTKTKIKK was run?
The protein stability index was 0.741 ± 0.031.

With LSARVSYRITLR as the sequence, how does the protein stability index read?
Its protein stability index is 0.599 ± 0.019.

For KKLSSRTQGLHG, which protein stability index is on record?
Its protein stability index is 0.746 ± 0.059.

How did the protein stability index turn out when LPSPISLSPPLP was run?
Its protein stability index is 0.652 ± 0.051.

Which protein stability index does the source give for GRRRTFGRSRGG here?
The protein stability index was 0.651 ± 0.029.

SLPPDPPSSYSP was tested. Which protein stability index did it give?
The protein stability index was 0.632 ± 0.044.

For SWGLGWIARRRT, which protein stability index is on record?
Its protein stability index is 0.684 ± 0.052.

For AERSVRGTTPGG, which protein stability index is on record?
Its protein stability index is 0.632 ± 0.051.

Which protein stability index does the source give for QRRRQEKRKKQD here?
Its protein stability index is 0.654 ± 0.077.

For AIANIIERFTLL, which protein stability index is on record?
Its protein stability index is 0.63 ± 0.066.

Which protein stability index does the source give for PAPPRSLPPSSP here?
Its protein stability index is 0.6536 ± 0.0058.

With FFYYPSFLPSPL as the sequence, how does the protein stability index read?
The protein stability index was 0.685 ± 0.011.

ETKKEETKRWRR was tested. Which protein stability index did it give?
Its protein stability index is 0.6789 ± 0.0025.

With PSPPPAPPPQPS as the sequence, how does the protein stability index read?
Its protein stability index is 0.678 ± 0.052.

Which protein stability index does the source give for RRGYSNCMTLWI here?
Its protein stability index is 0.702 ± 0.049.

How did the protein stability index turn out when PASSAPDSSTAH was run?
Its protein stability index is 0.7406 ± 0.0052.

With AGGGGGTRVHWR as the sequence, how does the protein stability index read?
Its protein stability index is 0.682 ± 0.013.

Which protein stability index does the source give for VAGFVPSWVALW here?
The protein stability index was 0.643 ± 0.1.

Which protein stability index does the source give for KPRKEKRGLVNS here?
The protein stability index was 0.664 ± 0.039.

How did the protein stability index turn out when IPSSMWHICCLC was run?
Its protein stability index is 0.538 ± 0.025.

How did the protein stability index turn out when KDATVILSSRRR was run?
Its protein stability index is 0.745 ± 0.024.

For LHDICADRSSIL, which protein stability index is on record?
The protein stability index was 0.739 ± 0.009.

How did the protein stability index turn out when LSPPLPRAPHLS was run?
The protein stability index was 0.678 ± 0.077.

GVPFPGPNTLIL was tested. Which protein stability index did it give?
The protein stability index was 0.73 ± 0.075.

With RKRASHALTPPC as the sequence, how does the protein stability index read?
The protein stability index was 0.732 ± 0.024.

With PLPPPRPSPGLL as the sequence, how does the protein stability index read?
The protein stability index was 0.67 ± 0.1.

RSFPLRLLSLFV was tested. Which protein stability index did it give?
Its protein stability index is 0.585 ± 0.019.

How did the protein stability index turn out when ASRIGHIGQPVI was run?
Its protein stability index is 0.6889 ± 0.00017.

Which protein stability index does the source give for QTPLPPSAISPP here?
Its protein stability index is 0.7124 ± 0.005.

With ARIGVQRFSGVV as the sequence, how does the protein stability index read?
Its protein stability index is 0.708 ± 0.019.

For EDTYSGKGSRGV, which protein stability index is on record?
Its protein stability index is 0.774 ± 0.047.

Which protein stability index does the source give for QNLRLRKNIDIK here?
The protein stability index was 0.76 ± 0.014.

AVYIEFLYPRRL was tested. Which protein stability index did it give?
The protein stability index was 0.644 ± 0.039.

With VCRGRGGEGIGW as the sequence, how does the protein stability index read?
The protein stability index was 0.721 ± 0.096.

With CGVHESAIQPNL as the sequence, how does the protein stability index read?
The protein stability index was 0.605 ± 0.0081.

With DFLDPLQDEWPC as the sequence, how does the protein stability index read?
The protein stability index was 0.805 ± 0.039.

Which protein stability index does the source give for SAPRFPARFYPL here?
The protein stability index was 0.66705 ± 0.0003.

With PPTLVPPFPTKV as the sequence, how does the protein stability index read?
The protein stability index was 0.742 ± 0.064.

EHMEYKSMVSCA was tested. Which protein stability index did it give?
The protein stability index was 0.51 ± 0.059.

With VCSLTFFGLCRP as the sequence, how does the protein stability index read?
The protein stability index was 0.69 ± 0.025.

TKVCWNVDYNVL was tested. Which protein stability index did it give?
The protein stability index was 0.697 ± 0.012.

With VRLRGEGCGWGG as the sequence, how does the protein stability index read?
The protein stability index was 0.7158 ± 0.0022.

KQGKKKDEWTRG was tested. Which protein stability index did it give?
Its protein stability index is 0.6945 ± 0.0023.

For SLLLPLFLPPSL, which protein stability index is on record?
The protein stability index was 0.723 ± 0.0086.

How did the protein stability index turn out when GEGHVRCCFSLR was run?
Its protein stability index is 0.699 ± 0.013.

PRCIELASMRRP was tested. Which protein stability index did it give?
The protein stability index was 0.681 ± 0.068.

How did the protein stability index turn out when EGDGLGGGGQGG was run?
Its protein stability index is 0.685 ± 0.0069.

For SGVRSPALLGRC, which protein stability index is on record?
The protein stability index was 0.68 ± 0.042.

NWLYPYSLRRRG was tested. Which protein stability index did it give?
The protein stability index was 0.663 ± 0.13.

AGLLFDSPPLLV was tested. Which protein stability index did it give?
The protein stability index was 0.725 ± 0.034.

Which protein stability index does the source give for GADGGLVSLGVS here?
Its protein stability index is 0.743 ± 0.026.

How did the protein stability index turn out when PPATPPRPPLPS was run?
The protein stability index was 0.675 ± 0.057.

Which protein stability index does the source give for SECLCVRDRCGG here?
The protein stability index was 0.685 ± 0.078.

How did the protein stability index turn out when FPFFLPMASLFC was run?
Its protein stability index is 0.559 ± 0.018.

How did the protein stability index turn out when RNQTRKTTQKPR was run?
Its protein stability index is 0.661 ± 0.01.

Which protein stability index does the source give for PPHTLTSTIRPN here?
The protein stability index was 0.73 ± 0.019.

For APDRPTPSLSSP, which protein stability index is on record?
The protein stability index was 0.7057 ± 0.0053.

Which protein stability index does the source give for YSVSAALPREFR here?
Its protein stability index is 0.773 ± 0.062.

HITTNHLPTSCD was tested. Which protein stability index did it give?
Its protein stability index is 0.73 ± 0.039.

For GGFCRLRYLVCP, which protein stability index is on record?
The protein stability index was 0.544 ± 0.039.

For ITVFRAEVRTKK, which protein stability index is on record?
Its protein stability index is 0.6846 ± 0.0054.

Which protein stability index does the source give for NQAQTQQMKTEW here?
Its protein stability index is 0.608 ± 0.05.

Which protein stability index does the source give for PRDQPPDGHASP here?
Its protein stability index is 0.6717 ± 0.002.

For LLYPALQHVSSV, which protein stability index is on record?
Its protein stability index is 0.721 ± 0.12.

How did the protein stability index turn out when VVLFFGPRWSLG was run?
Its protein stability index is 0.624 ± 0.068.

PPPRLAPTLLPA was tested. Which protein stability index did it give?
The protein stability index was 0.5999 ± 0.0046.

Which protein stability index does the source give for PPRGCLYFSRPP here?
The protein stability index was 0.739 ± 0.095.

VSVSRGTNCCYD was tested. Which protein stability index did it give?
Its protein stability index is 0.686 ± 0.023.

With KKLRNKKGKRYA as the sequence, how does the protein stability index read?
Its protein stability index is 0.645 ± 0.086.

With AWMSRTRSKNLR as the sequence, how does the protein stability index read?
The protein stability index was 0.717 ± 0.048.

For PPPRPPRPPCPF, which protein stability index is on record?
Its protein stability index is 0.732 ± 0.059.

LHKSINPSPHPP was tested. Which protein stability index did it give?
Its protein stability index is 0.6864 ± 0.0066.

With RVSEPRRPPLGR as the sequence, how does the protein stability index read?
Its protein stability index is 0.65 ± 0.024.

Which protein stability index does the source give for SASLPSPPFPSP here?
The protein stability index was 0.649 ± 0.054.

VRDGPRCPVACP was tested. Which protein stability index did it give?
The protein stability index was 0.621 ± 0.02.

Which protein stability index does the source give for EFFSDLLEMIRL here?
Its protein stability index is 0.725 ± 0.033.

RAMGDRSIRLDV was tested. Which protein stability index did it give?
Its protein stability index is 0.679 ± 0.02.

How did the protein stability index turn out when TVLTDKKGRVRS was run?
Its protein stability index is 0.71 ± 0.0093.

How did the protein stability index turn out when GGGVGGGRAWWR was run?
The protein stability index was 0.699 ± 0.037.

For GNVRRVYMDYQG, which protein stability index is on record?
The protein stability index was 0.735 ± 0.039.

With GGSRGGRWGLGE as the sequence, how does the protein stability index read?
Its protein stability index is 0.746 ± 0.087.

How did the protein stability index turn out when KEATTEKNTTRA was run?
The protein stability index was 0.6895 ± 0.0023.

With YKSKQKAQQKAK as the sequence, how does the protein stability index read?
Its protein stability index is 0.64 ± 0.13.

Which protein stability index does the source give for GRKGARESSNEI here?
Its protein stability index is 0.667 ± 0.0075.

LRNNKIKLIQKK was tested. Which protein stability index did it give?
Its protein stability index is 0.7809 ± 0.0034.

For SSPPSPSPPPPT, which protein stability index is on record?
Its protein stability index is 0.678 ± 0.038.

Which protein stability index does the source give for APPHPPPPLPPP here?
The protein stability index was 0.6366 ± 0.0052.

Which protein stability index does the source give for IASNAENCDVGV here?
Its protein stability index is 0.695 ± 0.11.
